Assay results from patent US20140274766A1, “METHODS OF USING F-SPONDIN AS A BIOMARKER FOR CARTILAGE DEGENERATIVE CONDITIONS AND BONE DISEASES” (priority 2009, published 2014).

Legend:
human chondrocytes = assay: PGE2 production by human chondrocytes (RIA), F-spondin supernatant and blocking antibodies; assay type: cell-based; details: supernatants from F-spondin transfected cells, 24 h, vs control vector supernatants
Description: FIG. 11: Blocking of F-spondin function by antibody: Human chondrocytes were grown in monolayer culture. The cells were adapted to serum free medium conditions for 24 h before treating with either F-spondin transfected supernatant (150 uL), LM609 (αvβ3) or R1 (F-spondin blocking antibody) for 24 h and the culture supernatant was collected for PGE2 estimation by RIA. The data is representative of one of the three experiments. F-spondin induced production of PGE2 was inhibited by R1 (TSR 3-6 blocking antibody).
F-spondin consists of reelin, spondin and six TSR domains; these domains may activate various cellular functions by binding to different receptors. Previously, Terai et al (2001) have shown that F-spondin inhibits angiogenesis in endothelial cells by binding to αvβ3 (Terai Y, Abe M, Miyamoto K, Koike M, Yamasaki M, Ueda M, et al. Vascular smooth muscle cell growth-promoting factor/F-spondin inhibits angiogenesis via the blockade of integrin alphavbeta3 on vascular endothelial cells. J Cell Physiol 2001; 188(3):394-402). […] Accordingly, human chondrocytes were incubated with the supernatant from F-spondin transfected cell culture for 24 h and the levels of PGE2 were measured under various conditions (FIG. 11). […]

[1] = system: latent TGF-β1 in OA cartilage explants; assay: Activation of latent TGF-β1 in OA cartilage explant cultures (ELISA); assay type: cell-based, human; details: F-spondin 1 μg/ml, 24 h
Description: FIG. 12: Activation of Latent TGF-β1 by exogenous addition of F-spondin in OA cartilage explant cultures: Human OA cartilage was grown as explant cultures in serum free Ham'F-12 medium. All the conditions were done in triplicate. To the cartilage explants recombinant human F-spondin (1 ug/ml) or IL-1 (1 ng/ml) were added and supernatants were collected after 24 h. Both active and total TGF-β1 was estimated. Addition of F-spondin increased the levels of active TGF-β1 observed in explants cultures without significant increase in total latent TGF-β1 secretion.
The effect of F-spondin on latent TGF-β1 activation in OA cartilage explant cultures was studied by ELISA (R&D systems). Unstimulated OA cartilage explants spontaneously released both latent TGF-β1 (˜11 ng/g cartilage) and active TGF-β1 (200 pg/g cartilage) in culture supernatants (FIG. 12).

[2] = system: chondrocytes in monolayer culture; assay: F-spondin effects on genes/gene products, preliminary experiments with chondrocytes in monolayer culture; assay type: cell-based, human; design: key to TNFα regulation / IL-1β regulation / AGC1 regulation / PGE2 regulation / MMP-13 regulation / TGF-β regulation / BMP-2 regulation / MMP-1 regulation / IL-8 regulation / IL-6 regulation / COL2A1 regulation: F-spondin-mediated upregulation*; downregulation**
Description: F-spondin induced both catabolic and anabolic gene/gene products in chondrocytes including BMP-2, type II collagen, TGF-β1, COX-2, mPGES and PGE2. To begin to address the question of whether selected F-spondin effects in cartilage are mediated by prostaglandin production, we have begun studies to characterize the effect of PGE2 in cartilage. Addition of PGE2 (1-10 uM) to cartilage explants inhibited type II collagen, aggrecan expression, ^35SO4 incorporation, as well as increased type II collagen degradation as assessed by C12C ELISA (IBEX). […] Relative to normals, NURR1 was overexpressed in OA cartilage (2-5 fold) and synovium (2 fold), confirmed by QPCR. Incubation of OA chondrocytes with PGE2 (1-10 uM) induced NURR1 expression (20-50 fold), as analyzed by QPCR. Since NURR1 binds to the NURR1 cis-acting sequence (NBRE) in the promoter region of a variety of genes, we examined the effect of adenoviral-mediated over-expression of NURR1 in chondrocytes.
For initial experiments, chondrocytes isolated from OA knee joints will be used, building from our previous observations using monolayer cultures of these cells (Attur M G, Dave M, Cipolletta C, Kang P, Goldring M B, Patel I R, et al. Reversal of autocrine and paracrine effects of interleukin 1 (IL-1) in human arthritis by type II IL-1 decoy receptor. Potential for pharmacological intervention. J Biol Chem 2000; 275(51):40307-15). However, because OA chondrocytes endogenously express F-spondin, at least initially, there is a potential for a masking effect between control and F-spondin-transduced cultures. To address this, experiments will also be performed in both “normal” chondrocytes isolated from non-arthritic cartilage (obtained from NDRI, Philadelphia) and immortalized C28I2 chondrocytes, where endogenous F-spondin expression is low and absent, respectively (unpublished data). Using this experimental culture system, we expect similar metabolic responses among chondrocyte sources, however if variation between sources is observed, to F-spondin either with or without IL-1, they will be noted and investigated further. For each group and time point, alginate cultures and conditioned cell culture media supernatants will be analyzed by quantitative PCR, ELISA and biochemical assays for molecular markers associated with cartilage anabolism and catabolism. Based on our preliminary findings with F-spondin and IL-1 treatment of monolayer chondrocytes, we predict that at least some of these molecules will be modulated in alginate cultures.

B1: F-spondin: 110 kDa, secreted, heparin-binding extracellular matrix glycoprotein; used as recombinant protein (R&D systems) or transfected-cell supernatant (protein, UniProt Q9HCB6 29-807, looked up)
Spondin-1: FSDETLDKVPKSEGYCSRILRAQGTRREGYTEFSLRVEGDPDFYKPGTSYRVTLSAAPPSYFRGFTLIALRENREGDKEEDHAGTFQIIDEEETQFMSNCPVAVTESTPRRRTRIQVFWIAPPAGTGCVILKASIVQKRIIYFQDEGSLTKKLCEQDSTFDGVTDKPILDCCACGTAKYRLTFYGNWSEKTHPKDYPRRANHWSAIIGGSHSKNYVLWEYGGYASEGVKQVAELGSPVKMEEEIRQQSDEVLTVIKAKAQWPAWQPLNVRAAPSAEFSVDRTRHLMSFLTMMGPSPDWNVGLSAEDLCTKECGWVQKVVQDLIPWDAGTDSGVTYESPNKPTIPQEKIRPLTSLDHPQSPFYDPEGGSITQVARVVIERIARKGEQCNIVPDNVDDIVADLAPEEKDEDDTPETCIYSNWSPWSACSSSTCDKGKRMRQRMLKAQLDLSVPCPDTQDFQPCMGPGCSDEDGSTCTMSEWITWSPCSISCGMGMRSRERYVKQFPEDGSVCTLPTEETEKCTVNEECSPSSCLMTEWGEWDECSATCGMGMKKRHRMIKMNPADGSMCKAETSQAEKCMMPECHTIPCLLSPWSEWSDCSVTCGKGMRTRQRMLKSLAELGDCNEDLEQVEKCMLPECPIDCELTEWSQWSECNKSCGKGHVIRTRMIQMEPQFGGAPCPETVQRKKCRIRKCLRNPSIQKLRWREARESRRSEQLKEESEGEQFPGCRMRPWTAWSECTKLCGGGIQERYMTVKKRFKSSQFTSCKDKKEIRACNVHPC
- PGE2 production (human chondrocytes): significantly increased
- increase of active TGF-β1 [1]: 225%
- total latent TGF-β1 synthesis [1]: without significant changes
- active TGF-β1 in culture supernatants ([1]; unstimulated 200 pg/g cartilage): 550 pg/g cartilage
- COX-2 gene/gene product ([2]; chondrocytes): induced
- mPGES gene/gene product ([2]; chondrocytes): induced
- AGC1 regulation ([2]; preliminary, monolayer culture): AGC1*
- BMP-2 regulation ([2]; preliminary, monolayer culture): BMP-2*
- COL2A1 regulation ([2]; preliminary, monolayer culture): COL2A1*
- IL-1β regulation ([2]; preliminary, monolayer culture): IL-1β**
- IL-6 regulation ([2]; preliminary, monolayer culture): IL-6*
- IL-8 regulation ([2]; preliminary, monolayer culture): IL-8*
- MMP-1 regulation ([2]; preliminary, monolayer culture): MMP-1**
- MMP-13 regulation ([2]; preliminary, monolayer culture): MMP-13*
- PGE2 regulation ([2]; preliminary, monolayer culture): PGE2*
- TGF-β regulation ([2]; preliminary, monolayer culture): TGF-β*
- TNFα regulation ([2]; preliminary, monolayer culture): TNFα**
